Results taken from patent US20050164936.

Tests used:
[1] = target: monocyte chemotactic protein-3 (MCP-3), P80098
RANTES(1-68) = target: T1, RANTES(1-68)
T1 chain: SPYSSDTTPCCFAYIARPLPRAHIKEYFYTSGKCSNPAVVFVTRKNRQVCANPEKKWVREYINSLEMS

MCP-2, P80075 = target: T2, MCP-2, P80075
T2 chain: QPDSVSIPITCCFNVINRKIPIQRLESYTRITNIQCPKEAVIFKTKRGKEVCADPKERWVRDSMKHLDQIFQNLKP

MCP-1, P13500, sequence (P13500 whole entry, looked up): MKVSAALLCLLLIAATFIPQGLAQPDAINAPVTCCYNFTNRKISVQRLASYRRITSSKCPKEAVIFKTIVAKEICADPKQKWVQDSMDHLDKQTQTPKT
monocyte chemotactic protein-3 (MCP-3), P80098, sequence (P80098 24-99): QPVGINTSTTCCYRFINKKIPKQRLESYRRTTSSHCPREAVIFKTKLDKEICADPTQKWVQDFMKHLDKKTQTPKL

B1: Human CD26/DPP IV (protein)
chain: MKTPWKVLLGLLGAAALVTIITVPVVLLNKGTDDATADSRKTYTLTDYLKNTYRLKLYSLRWISDHEYLYKQENNILVFNAEYGNSSVFLENSTFDEFGHSINDYSISPDGQFILLEYNYVKQWRHSYTASYDIYDLNKRQLITEERIPNNTQWVTWSPVGHKLAYVWNNDIYVKIEPNLPSYRITWTGKEDIIYNGITDWVYEEEVFSAYSALWWSPNGTFLAYAQFNDTEVPLIEYSFYSDESLQYPKTVRVPYPKAGAVNPTVKFFVVNTDSLSSVTNATSIQITAPASMLIGDHYLCDVTWATQERISLQWLRRIQNYSVMDICDYDESSGRWNCLVARQHIEMSTTGWVGRFRPSEPHFTLDGNSFYKIISNEEGYRHICYFQIDKKDCTFITKGTWEVIGIEALTSDYLYYISNEYKGMPGGRNLYKIQLSDYTKVTCLSCELNPERCQYYSVSFSKEAKYYQLRCSGPGLPLYTLHSSVNDKGLRVLEDNSALDKMLQNVQMPSKKLDFIILNETKFWYQMILPPHFDKSKKYPLLLDVYAGPCSQKADTVFRLNWATYLASTENIIVASFDGRGSGYQGDKIMHAINRRLGTFEVEDQIEAARQFSKMGFVDNKRIAIWGWSYGGYVTSMVLGSGSGVFKCGIAVAPVSRWEYYDSVYTERYMGLPTPEDNLDHYRNSTVMSRAENFKQVEYLLIHGTADDNVHFQQSAQISKALVDVGVDFQAMWYTDEDHGIASSTAHQHIYTHMSHFIKQCFSLP
proteolytic processing (overnight incubation, Edman degradation) [1]: no NH2-terminal sequence could be detected, indicating that CD26/DPP IV does not alter the NH2-terminus of MCPs | proteolytic processing (overnight incubation, Edman degradation) (RANTES(1-68)): CD26/DPP IV treatment of RANTES resulted in the removal of the NH2-terminal dipeptides | proteolytic processing (overnight incubation, Edman degradation) (MCP-2, P80075): no NH2-terminal sequence could be detected, indicating that CD26/DPP IV does not alter the NH2-terminus of MCPs | proteolytic processing (overnight incubation, Edman degradation) (MCP-1, P13500): no NH2-terminal sequence could be detected, indicating that CD26/DPP IV does not alter the NH2-terminus of MCPs
